The supplement of paper PMC10567573

B1: NR2F2 (parent)
chain: NIPFFPDLQITDQVALLRLTWSEL

Variants of: B1
Assay: protein stability index of a GFP-peptide fusion (GPS, HEK-293T) (PSI 1-6); higher = more stable
Settings: c terminus: a fixed tail appended
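Further: lentivirally expressed fusions sorted by FACS into six bins by GFP to DsRed ratio, PSI derived from sequencing read proportions per bin multiplied by bin number.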

Protein stability index of substitutions, site by site:
N1: M 3.01 | H 2.44 | T 2.02 | C 2.81 | P 2.45 | E 2.36 | K 2.26 | R 4.3 | L 2.23 | W 2.72 | D 3.27 | Y 2.74 | Q 1.1 | F 3.02 | S 1.75
Q13: P 2.57 | F 1.69 | C 3.12 | W 2.93 | V 2.66 | N 1.97 | S 2.33 | L 4.11 | G 1.29 | H 3.09 | A 2.75 | K 2.41 | T 3.06 | I 4.15 | E 2.2 | R 1.92 | D 1.85 | M 4.27
D7: R 2.46 | N 2.78 | W 4.12 | C 2.67 | M 3.45 | A 1.65 | V 2 | Q 3.44 | S 3.27 | T 4.43 | H 2.53 | K 2.03 | I 2.86 | E 2.4 | G 3.35 | Y 2.79 | F 2.25 | P 2.46 | L 2.88
F5: A 1.98 | Y 2.26 | M 1.78 | H 1.79 | W 1.68 | N 1.73 | D 2 | C 3.66 | K 2.17 | I 2.26 | G 1.7 | P 1.49 | R 2.34 | L 1.56 | Q 2.13 | E 1.67 | V 2.41 | T 1.49 | S 2.16
P6: N 2.81 | H 2.31 | D 2.23 | A 2.97 | Y 3.14 | V 3.65 | S 2.52 | C 1.8 | E 2.5 | Q 2.32 | F 3.43 | I 3.02 | T 2.77 | M 2.25 | R 1.51 | G 3.94 | K 2
F4: L 3.09 | P 2.58 | N 2.79 | V 2.42 | Q 2.62 | H 2.35 | E 2.22 | W 1.44 | K 2.12 | M 2.26 | A 2.34 | S 2.04 | C 2.63 | G 2.2 | T 2.03 | I 2.63 | R 1.37 | D 2.44 | Y 2.56
L8: M 2.51 | R 1.99 | A 2.32 | I 2.92 | E 2.11 | V 2.09 | Q 2.22 | P 2.25 | T 2.73 | F 3.11 | N 1.86 | W 2.64 | H 2 | C 1.92 | Y 2.05 | D 1.98 | S 1.82 | K 2.7 | G 1.47
D12: C 2.46 | V 4.16 | L 2.12 | T 2.86 | M 2.37 | K 3.13 | P 4.7 | N 2.42 | G 2.42 | W 3.74 | H 3.3 | R 1.66 | A 3.01 | I 3.82 | F 2.42 | Y 4.16 | S 3.57 | E 3.52
V14: P 1.87 | N 1.89 | K 2.13 | Q 1.99 | Y 2.03 | D 1.57 | C 3.12 | M 2.14 | S 1.74 | I 2.81 | W 3.25 | L 2.72 | T 2.38 | F 2.04 | E 1.9 | R 1.78 | A 1.7 | H 1.81 | G 1.45
A15: C 2.07 | F 3.86 | E 1.55 | H 1.57
